Experimental data reported in PMC5916030.

What was measured:
[1] = molecular target: anthrax lethal factor (LF) (Bacillus anthracis, UniProt P15917 34-809); assay: aptamer ELISA
Target sequence in this assay (P15917 34-809): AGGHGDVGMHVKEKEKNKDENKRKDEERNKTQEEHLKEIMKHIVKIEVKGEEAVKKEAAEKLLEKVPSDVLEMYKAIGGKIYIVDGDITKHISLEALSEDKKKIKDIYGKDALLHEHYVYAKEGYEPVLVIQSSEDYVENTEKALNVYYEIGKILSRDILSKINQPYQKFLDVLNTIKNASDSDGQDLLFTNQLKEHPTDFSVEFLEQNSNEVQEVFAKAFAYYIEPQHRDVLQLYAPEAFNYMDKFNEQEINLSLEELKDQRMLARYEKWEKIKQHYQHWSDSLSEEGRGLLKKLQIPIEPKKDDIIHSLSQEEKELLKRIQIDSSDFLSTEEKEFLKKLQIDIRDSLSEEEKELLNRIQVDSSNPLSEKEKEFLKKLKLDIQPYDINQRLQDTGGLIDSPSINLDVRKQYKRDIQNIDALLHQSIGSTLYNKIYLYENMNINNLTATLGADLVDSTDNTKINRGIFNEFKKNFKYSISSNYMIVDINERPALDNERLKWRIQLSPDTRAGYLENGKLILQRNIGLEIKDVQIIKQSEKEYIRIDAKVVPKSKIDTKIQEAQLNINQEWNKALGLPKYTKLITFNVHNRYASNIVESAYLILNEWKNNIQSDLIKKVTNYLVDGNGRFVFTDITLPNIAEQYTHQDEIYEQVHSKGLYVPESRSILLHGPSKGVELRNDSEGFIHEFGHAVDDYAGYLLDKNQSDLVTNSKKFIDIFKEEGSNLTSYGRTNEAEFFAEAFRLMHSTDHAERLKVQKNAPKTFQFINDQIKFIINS

[2] = molecular target: anthrax lethal factor (LF) (Bacillus anthracis, UniProt P15917 34-809); assay: […]) immobilized in 20 mM HEPES pH 7.4, […]
Target sequence in this assay (P15917 34-809): as above

| Binder | binding result [1] | binding result [2] |
| --- | --- | --- |
| CGCACTGAAGTGGGATACCGCCTAAACGGA (ssDNA) [scramble 30-mer] | no binding | – |
| GGAGAGAGGGAGACGCGCAACCTCGACCCGT (ssDNA) [ML7] | – | no binding |
| GGACCAGCCGCCGCGCCTTGACCGGGGGTA (ssDNA) [ML6] | – | no binding |
